B1: Neutrophil cytosol factor 1 (Homo sapiens), P14598 (parent)
chain: MGDTFIRHIALLGFEKRFVPSQHYVYMFLVKWQDLSEKVVYRRFTEIYEFHKTLKEMFPIEAGAINPENRIIPHLPAPKWFDGQRAAENRQGTLTEYCSTLMSLPTKISRCPHLLDFFKVRPDDLKLPTDNQTKKPETYLMPKDGKSTATDITGPIILQTYRAIANYEKTSGSEMALSTGDVVEVVEKSESGWWFCQMKAKRGWIPASFLEPLDSPDETEDPEPNYAGEPYVAIKAYTAVEGDEVSLLEGEAVEVIHKLLDGWWVIRKDDVTGYFPSMYLQKSGQDVSQAQRQIKRGAPPRRSSIRNAHSIHQRSRKRLSQDAYRRNSVRFLQQRRRQARPGPQSPGSPLEEERQTQRSKPQPAVPPRPSADLILNRCSESTKRKLASAV

Variants of B1 are the subject of the experiment. As to conditions: with ncf2_human NCF2, P19878.
ncf2_human NCF2, P19878, sequence (P19878 whole entry): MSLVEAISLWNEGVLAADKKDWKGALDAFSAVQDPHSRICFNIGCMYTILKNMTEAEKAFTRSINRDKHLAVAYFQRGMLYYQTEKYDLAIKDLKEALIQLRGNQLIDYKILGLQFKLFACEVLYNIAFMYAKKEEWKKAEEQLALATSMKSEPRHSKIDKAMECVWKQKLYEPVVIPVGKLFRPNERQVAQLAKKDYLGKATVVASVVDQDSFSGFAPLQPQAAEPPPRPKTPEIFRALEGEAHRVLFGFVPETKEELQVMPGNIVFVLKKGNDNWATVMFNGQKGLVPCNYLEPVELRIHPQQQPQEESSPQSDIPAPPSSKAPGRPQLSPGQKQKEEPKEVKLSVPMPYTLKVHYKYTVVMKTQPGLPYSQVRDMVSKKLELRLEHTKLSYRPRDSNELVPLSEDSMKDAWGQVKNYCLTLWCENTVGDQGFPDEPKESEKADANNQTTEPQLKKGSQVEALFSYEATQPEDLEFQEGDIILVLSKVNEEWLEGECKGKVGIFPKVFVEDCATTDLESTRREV
Consider MGDTFIRHIALLGFEKRFVPSQHYVYMFLVKWQDLSEKVVYRRFTEIYEFHKTLKEMFPIEAGAINPENRIIPHLPAPKWFDGQRAAENRQGTLTEYCSTLMSLPTKISRCPHLLDFFKVRPDDLKLPTDNQTKKPETYLMPKDGKSTATDITGPIILQTYRAIANYEKTSGSEMALSTGDVVEVVEKSESGWWFCQMKAKRGWIPASFLEPLDSPDETEDPEPNYAGEPYVAIKAYTAVEGDEVSLLEGEAVEVIHKLLDGWWVIRKDDVTGYFPSMYLQKSGQDVSQAQRQIKRGAPPRRSSIRNAHSIHQRSRKRLSQDAYRRNSVRFLQQRRRQARPGPQSPGSPLEEERQTQRSKPQPAVPPRPSADLILNRCSESTKRELASAV [K385E], for which the “effect of a mutation on the interaction” value is reported as “decreasing interaction”.
Consider MGDTFIRHIALLGFEKRFVPSQHYVYMFLVKWQDLSEKVVYRRFTEIYEFHKTLKEMFPIEAGAINPENRIIPHLPAPKWFDGQRAAENRQGTLTEYCSTLMSLPTKISRCPHLLDFFKVRPDDLKLPTDNQTKKPETYLMPKDGKSTATDITGPIILQTYRAIANYEKTSGSEMALSTGDVVEVVEKSESGWWFCQMKAKRGWIPASFLEPLDSPDETEDPEPNYAGEPYVAIKAYTAVEGDEVSLLEGEAVEVIHKLLDGWWVIRKDDVTGYFPSMYLQKSGQDVSQAQRQIKRGAPPRRSSIRNAHSIHQRSRKRLSQDAYRRNSVRFLQQRRRQARPGPQSPGSPLEEERQTQRSKPQAAVPPRPSADLILNRCSESTKRKLASAV [P363A], for which the “effect of a mutation on the interaction” value is recorded as “decreasing interaction”.
Take MGDTFIRHIALLGFEKRFVPSQHYVYMFLVKWQDLSEKVVYRRFTEIYEFHKTLKEMFPIEAGAINPENRIIPHLPAPKWFDGQRAAENRQGTLTEYCSTLMSLPTKISRCPHLLDFFKVRPDDLKLPTDNQTKKPETYLMPKDGKSTATDITGPIILQTYRAIANYEKTSGSEMALSTGDVVEVVEKSESGWWFCQMKAKRGWIPASFLEPLDSPDETEDPEPNYAGEPYVAIKAYTAVEGDEVSLLEGEAVEVIHKLLDGWWVIRKDDVTGYFPSMYLQKSGQDVSQAQRQIKRGAPPRRSSIRNAHSIHQRSRKRLSQDAYRRNSVRFLQQRRRQARPGPQSPGSPLEEERQTQRSKPQPAVPPRPSADLILNRCSESTERKLASAV [K383E]: the “effect of a mutation on the interaction” value is reported as “decreasing interaction”.
Under MGDTFIRHIALLGFEKRFVPSQHYVYMFLVKWQDLSEKVVYRRFTEIYEFHKTLKEMFPIEAGAINPENRIIPHLPAPKWFDGQRAAENRQGTLTEYCSTLMSLPTKISRCPHLLDFFKVRPDDLKLPTDNQTKKPETYLMPKDGKSTATDITGPIILQTYRAIANYEKTSGSEMALSTGDVVEVVEKSESGWWFCQMKAKRGWIPASFLEPLDSPDETEDPEPNYAGEPYVAIKAYTAVEGDEVSLLEGEAVEVIHKLLDGWWVIRKDDVTGYFPSMYLQKSGQDVSQAQRQIKRGAPPRRSSIRNAHSIHQRSRKRLSQDAYRRNSVRFLQQRRRQARPGPQSPGSPLEEERQTQRSKPQPAVAPRPSADLILNRCSESTKRKLASAV [P366A] stands “disrupting interaction”.
MGDTFIRHIALLGFEKRFVPSQHYVYMFLVKWQDLSEKVVYRRFTEIYEFHKTLKEMFPIEAGAINPENRIIPHLPAPKWFDGQRAAENRQGTLTEYCSTLMSLPTKISRCPHLLDFFKVRPDDLKLPTDNQTKKPETYLMPKDGKSTATDITGPIILQTYRAIANYEKTSGSEMALSTGDVVEVVEKSESGWWFCQMKAKRGWIPASFLEPLDSPDETEDPEPNYAGEPYVAIKAYTAVEGDEVSLLEGEAVEVIHKLLDGWWVIRKDDVTGYFPSMYLQKSGQDVSQAQRQIKRGAPPRRSSIRNAHSIHQRSRKRLSQDAYRRNSVRFLQQRRRQARPGPQSPGSPLEEERQTQRSKPQPAVPPAPSADLILNRCSESTKRKLASAV [R368A]: the “effect of a mutation on the interaction” value is recorded as “decreasing interaction”.

These data come from IntAct's records for PubMed 19129478.
